Source: patent US20150361138A1 (INSTITUT NATIONAL DE LA RECHERCHE AGRONOMIQUE, published 2015)
*1 amine or outer side, *2 acyl side, *3 side chain or, on linkers, in order; H or OH if unused. Side-chain parts run from the residue outwards. [ ]: non-standard residue; d: D form. The star is where a group is joined. TTDS = 1,13-diamino-4,7,10-trioxatridecan-succinic acid spacer arm, O=C(CCC(=O)[*:2])NCCCOCCOCCOCCCN[*:1]; PEG5000 = COCH2CH2NH(CH2CH2O)nMe, about 5000 g/mol; γGlu = O=C(O)[C@H](CCC(=O)[*:2])N[*:1]; Arg(Me) = CNC(=N)NCCC[C@H](N)C(=O)O; Palmitoyl = CCCCCCCCCCCCCCCC(=O)*

B1: peptide compound C5, Ac-Tyr-Asn-Trp-Asn-Ser-PheΨ[Tz]GlyΨ[Tz]Leu-Arg-Tyr-NH2 (peptide)
peptide: Ac-YNWNSFGLRY-NH2
modifications: also: Phe6-Gly7 and Gly7-Leu8 peptide bonds replaced by 1,4-disubstituted 1,2,3-triazoles

What follows are molecules tested against T1, human KISS1R receptor (human, UniProt Q969F8 1-398) (assay: cell-based or functional assay).
T1 sequence (Q969F8 whole entry): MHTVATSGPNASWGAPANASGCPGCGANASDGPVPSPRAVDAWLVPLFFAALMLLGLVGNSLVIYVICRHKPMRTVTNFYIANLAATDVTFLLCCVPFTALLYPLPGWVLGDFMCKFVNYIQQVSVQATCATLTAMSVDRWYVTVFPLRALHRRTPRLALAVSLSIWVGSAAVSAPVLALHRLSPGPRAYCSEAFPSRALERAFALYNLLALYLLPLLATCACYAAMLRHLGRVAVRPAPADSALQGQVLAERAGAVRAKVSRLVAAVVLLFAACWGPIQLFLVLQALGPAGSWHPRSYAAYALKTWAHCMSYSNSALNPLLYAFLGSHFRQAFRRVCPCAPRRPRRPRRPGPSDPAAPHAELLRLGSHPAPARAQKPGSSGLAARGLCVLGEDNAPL

“peptide compound C6, Ac-DTyr-DTrp-Asn-Thr-Phe-GlyΨ[Tz]Leu-Arg(Me)-Trp-NH2” and “peptide compound C7, Ac-DTyr-Hyp-Asn-Thr-Phe-GlyΨ[Tz]Leu-Arg(Me)-Trp-NH2” are within 1.5-fold of each other in EC50 (nM), intracellular calcium mobilization of cells expressing human KISS1R: 0.01 nM for the first, 0.014 nM for the second.

Molecular target: T1, human KISS1R receptor
Assay: cell-based or functional assay
Remark: another data set of the same source

Going from Ac-YNWNSFGL[Arg(Me)]Y-NH2 (also: Gly7-Leu8 peptide bond replaced by 1,4-disubstituted 1,2,3-triazole) [peptide compound C3, Ac-Tyr-Asn-Trp-Asn-Ser-Phe-GlyΨ[Tz]Leu-Arg(Me)-Tyr-NH2] to Ac-YNWNSFGLRY-NH2 (also: Gly7-Leu8 peptide bond replaced by 1,4-disubstituted 1,2,3-triazole) [peptide compound C2, Ac-Tyr-Asn-Trp-Asn-Ser-Phe-GlyΨ[Tz]Leu-Arg-Tyr-NH2], the “EC50 (nM), intracellular calcium mobilization of cells expressing human KISS1R” value rises from 0.014 nM to 0.029 nM (2.1-fold).

First: B1
Second: H-YNWNSFGLRY-NH2 (also: Gly7-Leu8 peptide bond replaced by 1,4-disubstituted 1,2,3-triazole) [peptide compound C1, H-Tyr-Asn-Trp-Asn-Ser-Phe-GlyΨ[Tz]Leu-Arg-Tyr-NH2]
The “EC50 (nM), intracellular calcium mobilization of cells expressing human KISS1R” value of the first is 88-fold higher: 44 nM for the first, 0.5 nM for the second.

Going from Ac-YNK(Ac)NSFGL[Arg(Me)]Y-NH2 (also: Gly7-Leu8 peptide bond replaced by 1,4-disubstituted 1,2,3-triazole) [peptide compound C4, Ac-Tyr-Asn-Lys(Ac)-Asn-Ser-Phe-GlyΨ[Tz]Leu-Arg(Me)-Tyr-NH2] to H-YNWNSFGLRY-NH2 [comparative peptide compound Comp.1 (mKP10), H-Tyr-Asn-Trp-Asn-Ser-Phe-Gly-Leu-Arg-Tyr-NH2], the “EC50 (nM), intracellular calcium mobilization of cells expressing human KISS1R” value rises from 0.011 nM to 2.9 nM (260-fold).

For Ac-YNWNSFGLRY-NH2 [peptide compound Comp.3, Ac-Tyr-Asn-Trp-Asn-Ser-Phe-Gly-Leu-Arg-Tyr-NH2], the “EC50 (nM), intracellular calcium mobilization of cells expressing human KISS1R” value was 0.1 nM.

Molecular target: T1, human KISS1R receptor
Assay: cell-based or functional assay
Remark: another data set of the same source

Compared with Ac-YK(2‑(succinamido)‑6‑(4-(4-iodophenyl)butanamido)hexanoate)WNSFGLRY-NH2 (also: Gly7-Leu8 peptide bond replaced by 1,4-disubstituted 1,2,3-triazole), Ac-YK(PEG5000)WNSFGLRY-NH2 (also: Gly7-Leu8 peptide bond replaced by 1,4-disubstituted 1,2,3-triazole) [peptide compound C16, Ac-Tyr-Lys(PEG5000)-Trp-Asn-Ser-Phe-GlyΨ[Tz]Leu-Arg-Tyr-NH2] is 4200-fold higher in “EC50 (nM), intracellular calcium mobilization of cells expressing human KISS1R” value: 0.001 nM for the first, 4.17 nM for the second.

Compared with Ac-YK([γGlu-Palmitoyl])WNSFGLRY-NH2 (also: Gly7-Leu8 peptide bond replaced by 1,4-disubstituted 1,2,3-triazole) [peptide compound C8, Ac-Tyr-Lys(γ-(N-hexadecanoyl-Glu-OH))-Trp-Asn-Ser-Phe-GlyΨ[Tz]Leu-Arg-Tyr-NH2], {Palmitoyl-γGlu}-YNWNSFGLRY-NH2 (also: Gly7-Leu8 peptide bond replaced by 1,4-disubstituted 1,2,3-triazole) [peptide compound C9, γ-(N-hexadecanoyl-Glu-OH)-Tyr-Asn-Trp-Asn-Ser-Phe-GlyΨ[Tz]Leu-Arg-Tyr-NH2] is lower in “EC50 (nM), intracellular calcium mobilization of cells expressing human KISS1R” value: 1.38 nM for the first, under 0.001 nM for the second.

Going from {Palmitoyl-γGlu}-YNWNSFGL[Arg(Me)]Y-NH2 (also: Gly7-Leu8 peptide bond replaced by 1,4-disubstituted 1,2,3-triazole) [peptide compound C12, γ-(N-hexadecanoyl-Glu-OH)Tyr-Asn-Trp-Asn-Ser-Phe-GlyΨ[Tz]Leu-Arg(Me)-Tyr-NH2] to Ac-YK([TTDS-γGlu-Palmitoyl])WNSFGLRY-NH2 (also: Gly7-Leu8 peptide bond replaced by 1,4-disubstituted 1,2,3-triazole), the “EC50 (nM), intracellular calcium mobilization of cells expressing human KISS1R” value rises from under 0.001 nM to 0.079 nM.

For Ac-YNK([γGlu-Palmitoyl])NSFGLRY-NH2 (also: Gly7-Leu8 peptide bond replaced by 1,4-disubstituted 1,2,3-triazole) [peptide compound C11, Ac-Tyr-Asn-Lys(γ-(N-hexadecanoyl-Glu-OH))-Asn-Ser-Phe-GlyΨ[Tz]Leu-Arg-Tyr-NH2], the “EC50 (nM), intracellular calcium mobilization of cells expressing human KISS1R” value was 90 nM.
